Test results as given in patent publication US20210388087A1 (Chugai, published 2021).
Positions count from the first letter of the chain named. Names may count otherwise.

B1: H183/L072 VH K64A (antibody, name in Kabat numbering, V domains shown)
VH: QVQLVESGGGLVQPGRSLRLSCAASGFTFSNAWMHWVRQAPGKGLEWVAQIKDKGNAYAAYYAPSVAGRFTISRDDSKNSIYLQMNSLKTEDTAVYYCHYVHYASASTVLPAFGVDAWGQGTTVTVSS
VL: DIVMTQSPLSLPVTPGEPASISCQASQELVHMNRNTYLHWYQQKPGQAPRLLIYKVSNRFPGVPDRFSGSGSGTDFTLKISRVEAEDVGVYYCAQGTSVPFTFGQGTKLEIK
B2: H183/L072 VH N31A (antibody, name in Kabat numbering, V domains shown)
VH: B1 VH with N31A, A67K
VL: B1 VL
B3: H183/L072 VH K64P (antibody, name in Kabat numbering, V domains shown)
VH: B1 VH with A67P
VL: B1 VL
B4: H183/L072 VH L100dM (antibody, name in Kabat numbering, V domains shown)
VH: B1 VH with A67K, L110M
VL: B1 VL
B5: H183/L072 VH N31T (antibody, name in Kabat numbering, V domains shown)
VH: B1 VH with N31T, A67K
VL: B1 VL
B6: H183/L072 VH L100dA (antibody, name in Kabat numbering, V domains shown)
VH: B1 VH with A67K, L110A
VL: B1 VL
B7: H183/L072 VH P61I (antibody, name in Kabat numbering, V domains shown)
VH: B1 VH with P64I, A67K
VL: B1 VL
B8: H183/L072 VH K64I (antibody, name in Kabat numbering, V domains shown)
VH: B1 VH with A67I
VL: B1 VL
B9: H183/L072 VH L100dI (antibody, name in Kabat numbering, V domains shown)
VH: B1 VH with A67K, L110I
VL: B1 VL
B10: H183/L072 VH M34L (antibody, name in Kabat numbering, V domains shown)
VH: B1 VH with M34L, A67K
VL: B1 VL
B11: H183/L072 VH K64L (antibody, name in Kabat numbering, V domains shown)
VH: B1 VH with A67L
VL: B1 VL
B12: H183/L072 VH N31G (antibody, name in Kabat numbering, V domains shown)
VH: B1 VH with N31G, A67K
VL: B1 VL
B13: H183/L072 VH M34F (antibody, name in Kabat numbering, V domains shown)
VH: B1 VH with M34F, A67K
VL: B1 VL
B14: H183/L072 VH M34V (antibody, name in Kabat numbering, V domains shown)
VH: B1 VH with M34V, A67K
VL: B1 VL
B15: H183/L072 VH N53Y (antibody, name in Kabat numbering, V domains shown)
VH: B1 VH with N56Y, A67K
VL: B1 VL
B16: H183/L072 VH N31P (antibody, name in Kabat numbering, V domains shown)
VH: B1 VH with N31P, A67K
VL: B1 VL
B17: H183/L072 VH P61M (antibody, name in Kabat numbering, V domains shown)
VH: B1 VH with P64M, A67K
VL: B1 VL
B18: H183/L072 VH N31Q (antibody, name in Kabat numbering, V domains shown)
VH: B1 VH with N31Q, A67K
VL: B1 VL
B19: H183/L072 VH N31W (antibody, name in Kabat numbering, V domains shown)
VH: B1 VH with N31W, A67K
VL: B1 VL
B20: H183/L072 VH N31Y (antibody, name in Kabat numbering, V domains shown)
VH: B1 VH with N31Y, A67K
VL: B1 VL
B21: H183/L072 VH P61L (antibody, name in Kabat numbering, V domains shown)
VH: B1 VH with P64L, A67K
VL: B1 VL
B22: H183/L072 VH M34H (antibody, name in Kabat numbering, V domains shown)
VH: B1 VH with M34H, A67K
VL: B1 VL
B23: H183/L072 VH N31V (antibody, name in Kabat numbering, V domains shown)
VH: B1 VH with N31V, A67K
VL: B1 VL
B24: H183/L072 VH M34I (antibody, name in Kabat numbering, V domains shown)
VH: B1 VH with M34I, A67K
VL: B1 VL
B25: H183/L072 VH M34Y (antibody, name in Kabat numbering, V domains shown)
VH: B1 VH with M34Y, A67K
VL: B1 VL
B26: H183/L072 VH M34P (antibody, name in Kabat numbering, V domains shown)
VH: B1 VH with M34P, A67K
VL: B1 VL
B27: H183/L072 VH P61A (antibody, name in Kabat numbering, V domains shown)
VH: B1 VH with P64A, A67K
VL: B1 VL
B28: H183/L072 VH N31L (antibody, name in Kabat numbering, V domains shown)
VH: B1 VH with N31L, A67K
VL: B1 VL
B29: H183/L072 VH N31S (antibody, name in Kabat numbering, V domains shown)
VH: B1 VH with N31S, A67K
VL: B1 VL
B30: H183/L072 VH N31I (antibody, name in Kabat numbering, V domains shown)
VH: B1 VH with N31I, A67K
VL: B1 VL
B31: H183/L072 VH K64M (antibody, name in Kabat numbering, V domains shown)
VH: B1 VH with A67M
VL: B1 VL
B32: H183/L072 VH N31H (antibody, name in Kabat numbering, V domains shown)
VH: B1 VH with N31H, A67K
VL: B1 VL
B33: H183/L072 VH N31F (antibody, name in Kabat numbering, V domains shown)
VH: B1 VH with N31F, A67K
VL: B1 VL

target: T1, Human CD137 ECD (human); assay: single mutant vs template dBBDu183H
T1 construct: also called 4-1BB
T1 sequence (chain, as listed by the source limits assumed): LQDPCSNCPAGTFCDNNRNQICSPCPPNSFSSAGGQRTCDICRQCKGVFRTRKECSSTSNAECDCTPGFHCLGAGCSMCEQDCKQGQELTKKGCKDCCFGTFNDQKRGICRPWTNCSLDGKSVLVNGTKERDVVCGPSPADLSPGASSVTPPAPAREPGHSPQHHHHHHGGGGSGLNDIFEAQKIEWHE

| Binder | fold change of affinity |
| --- | --- |
| B1 | 1.2 fold |
| B2 | 0.3 fold |
| B3 | 0.7 fold |
| B4 | 0.9 fold |
| B5 | 0.5 fold |
| B6 | 0.8 fold |
| B7 | 0.5 fold |
| B8 | 1.1 fold |
| B9 | 0 fold |
| B10 | 1.8 fold |
| B11 | 1.1 fold |
| B12 | 0.3 fold |
| B13 | 2.5 fold |
| B14 | 1 fold |
| B15 | 0 fold |
| B16 | 0.4 fold |
| B17 | 0.6 fold |

| Binder | fold change of affinity |
| --- | --- |
| B18 | 0.2 fold |
| B19 | 0.3 fold |
| B20 | 0 fold |
| B21 | 0.6 fold |
| B22 | 0.1 fold |
| B23 | 0.2 fold |
| B24 | 1.4 fold |
| B25 | 0 fold |
| B26 | 0.3 fold |
| B27 | 0.8 fold |
| B28 | 0.3 fold |
| B29 | 0.3 fold |
| B30 | 0.3 fold |
| B31 | 1.1 fold |
| B32 | 0.4 fold |
| B33 | 0.2 fold |
